Results published in publication PMC12737490, “Beta Toxins Isolated from the Scorpion Centruroides hirsutipalpus (Scorpiones; Buthidae) Affect the Function of Sodium Channels of Mammals” (Toxins, 2025).

Experiments:
[1] = tested on: CD1 strain albino mice; assay: Toxicity and lethality tests in mice (intraperitoneal); format: in vivo, Mus musculus; parameters: key to Toxicity: Non-toxic: “non-toxic” when the mice exhibited normal physiological and behavioral patterns indistinguishable from the control group; Toxic: “toxic” when the animals developed signs of intoxication, such as excitability, excessive salivation, transient paralysis, breathing difficulty, diarrhea, impaired coordination or movement, or excessive tearing. These symptoms would appear after administration but fully resolve within 24 h without lasting effects; Lethal: “lethal” when the mice showed severe manifestations of intoxication, including progressive paralysis, marked respiratory distress, convulsions, or complete loss of mobility, leading to death during the observation period as a direct consequence of exposure; conditions: 20 g CD1 mice; for symptoms in affected animals / time to death after injection / lethality in murine models: 30 µg in 100 µL PBS; for lethality in murine models / Toxicity: monitored 24 h, in triplicate; for Toxicity: 30 µg of each fraction in 100 µL PBS
Procedure: Toxicity assays. Toxicity and lethality tests of FPLC and HPLC fractions containing the toxins were conducted on CD1 strain albino mice (Mus musculus) weighing 20 g. The mice received intraperitoneal injections of 30 µg of each fraction diluted in 100 µL of Phosphate-buffered saline (PBS), while control mice were injected with sterile water. The mice were monitored for 24 h. […] A treatment was categorized as “toxic” when the animals developed signs of intoxication, such as excitability, excessive salivation, transient paralysis, breathing difficulty, diarrhea, impaired coordination or movement, or excessive tearing. These symptoms would appear after administration but fully resolve within 24 h without lasting effects. […] The experiments were conducted in triplicate. The Bioethics Committee approved the Animal Welfare protocol used in this study (Project 413).

[2] = tested on: hNav 1.1; assay: Patch-clamp macroscopic sodium currents, hNav1.1 in HEK cells; format: cell-based, human; conditions: 200 nM toxin, mean ± SE of 5 cells (3–5 cells); for I/Imax (residual peak current): Chirp9 value marked * (p<0.05 paired t-test); for slope of activation after toxin: control 7.7 ± 0.7 (Chirp7 cells), 7.2 ± 0.3 (Chirp9 cells); for V0.5 of activation after toxin: control -24.8 ± 0.8 (Chirp7 cells, toxin value marked *), -22.8 ± 0.3 (Chirp9 cells), * = p<0.05 paired t-test; for slope of inactivation after toxin / V0.5 of inactivation after toxin: steady-state inactivation; for slope of inactivation after toxin: control 6.7 ± 0.1 (Chirp7 cells), 6.8 ± 0.2 (Chirp9 cells); for V0.5 of inactivation after toxin: control -59.9 ± 0.2 (Chirp7 cells), -59 ± 0.2 (Chirp9 cells)
Procedure: Recordings of macroscopic currents from sodium channels. Human voltage-gated sodium channels (hNav 1.1, hNav 1.2 and hNa 1.6) were stably expressed in HEK cells. Cells were maintained at 37 ◦C with 5% CO2 in a humidified atmosphere. The growth medium consisted of high-glucose Dulbecco’s Modified Eagle Medium (DMEM, Sigma Aldrich, Naucalpan de Juarez, Estado de Mexico, Mexico), supplemented with 10% Fetal Bovine Serum (ByProductos, Guadalajara, Jalisco, Mexico) and 500 μg/mL of the antibiotic G418 (Sigma Aldrich, Naucalpan de Juarez, Estado de Mexico, Mexico). The extracellular solution was composed of (in mM): 130 NaCl, 5 KCl, 2 CaCl2, 2 MgCl2, 10 HEPES, and 5 glucose, with the pH adjusted to 7.3 using NaOH. The intracellular solution contained (in mM): 105 CsF, 27 CsCl, 5 NaCl, 2 MgCl2, 10 EGTA, and 10 HEPES, with the pH also adjusted to 7.3 with CsOH. Solutions were delivered to the patched cell via an active perfusion system connected to a variable-speed syringe pump (Model A-99, Razel Scientific Instruments, Fairfax, VT, USA), with a perfusion rate of approximately 1 μL/s. Patch pipettes were made from borosilicate glass capillaries (Warner Instruments, Hamden, CT, USA) using a vertical puller (Model P-30, Sutter Instrument, Novato, CA, USA). The pipettes were filled with the internal solution and had resistance ranging from 1.5 and 3 MΩ. Sodium currents were elicited by 100 ms depolarization ranging from −110 to 30 mV in 10 mV steps, followed by a fully activating step at −10 mV for 50 ms. To better appreciate the effects of scorpion β-sodium toxins, channels were primed by means of a 5 ms depolarization at 50 mV, applied 50 ms before the depolarization steps, as previously described in Cestele et al. 1998 [17]. To ensure complete recovery from inactivation, cells were maintained at −120 mV for 280 ms before each step, while holding potential was set at −100 mV. Currents were acquired using a MultiClamp 700A amplifier and a DigiData 1440A digitizer (Molecular Devices, CA, USA).
For the activation curve, conductance (G) was calculated from current (I) elicited during depolarization steps by means of the equation G = I/(Vm − ENa), where I is the current elicited at membrane potential Vm, and ENa is the reversal potential of Na^+ ions, calculated experimentally for each cell. Conductance was normalized to its maximal level and plotted against the corresponding membrane potential. For the steady-state inactivation curve, currents elicited at −10 mV (after preconditioning depolarization from −110 to 30 mV) were plotted against the preconditioning potentials. Data from activation and from steady-state inactivation were fitted using a Boltzmann equation: y = A2 + (A1 − A2)/(1 + exp((x − x0)/dx)) where A1 is the initial value, A2 is the final value, x0 is the potential of half-activation (or half-inactivation) and dx is the slope. […]
Figure S1. Recordings of macroscopic currents from sodium channels. Sodium currents in B) were elicited by the stimulation protocol depicted in A): currents were elicited by 100 ms depolarization ranging from -110 to 30 mV in 10 mV steps, followed by a fully activating step at -10 mV for 50 ms.
A 5 ms depolarization at 50 mV was applied 50 ms before the depolarization steps to primed the channels. Peak currents obtained during the step depolarization from -110 to 30 mV (C and D, black circle in control and open circle after toxin application) were used to calculate the conductance and construct the activation curves. Currents recorded during the step at -10 mV (C and D, black square in control and open square for the toxin), were used to construct the inactivation curves. […]

B1: Chirp7 (peptide)
chain: KEGYLVNHSTGCKYECFKLGDNDYCLRECRQQYGKGAGGYCYAFGCWCTHLYEQAVVWPLPKKTCN-NH2
modifications: disulfide (positions not given here); also: four disulfide bridges, pairing not given here
- symptoms in affected animals [1]: hyperexcitability, tremors, piloerection, hypersalivation, transient paralysis, dyspnea, motor incoordination, severe respiratory distress, and, ultimately, death
- time to death after injection [1]: approximately 20 min
- lethality in murine models [1]: pronounced lethality
- lethality in murine models ([1]; listed as FII.7): particularly lethal effects
- Toxicity [1]: Lethal
- I/Imax (residual peak current) [2]: 0.98±0.02
- slope of activation after toxin [2]: 6.9 ± 0.5
- V0.5 of activation after toxin [2]: -26.9 ± 0.6 mV
- slope of inactivation after toxin [2]: 6.4 ± 0.1
- V0.5 of inactivation after toxin [2]: -60.9 ± 0.2 mV

B2: Chirp9 (peptide)
chain: KEGYIVDYHTGCKYTCAKLGDNDYCVRECRLRYYQSAHGYCYAFACWCTHLYEAAVVWPLPNKRCK-NH2
modifications: disulfide (positions not given here); also: four disulfide bridges, pairing not given here
- symptoms in affected animals [1]: hyperexcitability, tremors, piloerection, hypersalivation, transient paralysis, dyspnea, motor incoordination, severe respiratory distress, and, ultimately, death
- time to death after injection [1]: approximately 20 min
- lethality in murine models [1]: pronounced lethality
- lethality in murine models ([1]; listed as FII.9): particularly lethal effects
- Toxicity [1]: Lethal
- I/Imax (residual peak current) [2]: 0.94 ± 0.02
- slope of activation after toxin [2]: 8.2 ± 0.2
- V0.5 of activation after toxin [2]: -23.6 ± 0.2 mV
- slope of inactivation after toxin [2]: 7.3 ± 0.2
- V0.5 of inactivation after toxin [2]: -60.1 ± 0.2 mV
